From US20250243265A1 (published 2025)
Positions count from the first letter of the chain named. Where two headings read alike, the source gives them in different places.

B1: 1D8 Fab displayed on phage (Fab, V domains shown)
VH: EVQLVESGGGLVQPGGSLRLSCAASGFTFTDYDIHWVRQAPGKGLEWVAGISPYGGYTDYADSVKGRFTISADTSKNTAYLQMNSLRAEDTAVYYCAREAGSRLLSVMDYWGQGTLVTVSS
VL: DIQMTQSPSSLSASVGDRVTITCRASQDVSTAVAWYQQKPGKAPKLLIYSASFLYSGVPSRFSGSGSGTDFTLTISSLQPEDFATYYCQQSYTTPPTFGQGTKVEIK
B2: 1D8.4F5 Fab displayed on phage (Fab, V domains shown)
VH: B1 VH with Y32D, G50E
VL: B1 VL with Y92F

Columns and labels:
[1] = molecular target: T1, linear diubiquitin (Boston Biochem) (UniProt P0CG48 1-152); test: phage competition ELISA; fit parameter m3
[2] = molecular target: T1, linear diubiquitin (Boston Biochem); test: phage competition ELISA; fit parameter m3; remark: listed apart in the source

| Binder | IC50 [1] [µM] | IC50 [2] [µM] |
| --- | --- | --- |
| B1 | 5.77 |  |
| B2 |  | 2.21 |
